Source: patent US20140087995A1 (published 2014)
Numbered stars: 1 amine (or outer) side, 2 acyl side, 3 side chain; on linkers, the order of the positions; unused ones are H or OH. Bridge positions count the residues as written; N and C are the ends. Side chains are listed from the residue outwards. Ends that are not written are not given here. * marks the point of attachment. C20 diacid = O=C(O)CCCCCCCCCCCCCCCCCCC(=O)*; γGlu = O=C(O)[C@H](CCC(=O)[*:2])N[*:1]

T1: human calcitonin receptor (human, UniProt P30988 25-474)
T1 construct: whole, on cells; Assay used cell membranes, not intact cells; also called hCTR; hCT
T1 sequence (looked up): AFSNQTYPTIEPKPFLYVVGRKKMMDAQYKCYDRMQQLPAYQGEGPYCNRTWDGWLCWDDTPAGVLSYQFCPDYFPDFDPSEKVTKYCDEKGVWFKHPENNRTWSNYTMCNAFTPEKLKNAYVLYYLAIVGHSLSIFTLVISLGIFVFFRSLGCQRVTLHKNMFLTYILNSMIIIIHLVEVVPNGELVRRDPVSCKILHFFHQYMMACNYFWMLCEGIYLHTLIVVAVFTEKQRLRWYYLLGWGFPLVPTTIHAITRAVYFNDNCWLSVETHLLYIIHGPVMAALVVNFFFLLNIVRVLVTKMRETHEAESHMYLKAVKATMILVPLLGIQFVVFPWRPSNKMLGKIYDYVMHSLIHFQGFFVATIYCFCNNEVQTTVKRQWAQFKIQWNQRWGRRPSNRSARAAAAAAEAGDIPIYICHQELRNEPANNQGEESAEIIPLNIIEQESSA

T2: human amylin receptor (amylin 3(a) receptor: human calcitonin receptor with RAMP-3) (human, UniProt P30988 25-474; O60896 24-148)
T2 construct: whole, on cells; Assay used cell membranes of the Amylin 3(a)/CRE-luc BHK cells, not intact cells; also called hAmylin-R; hAmylinR
T2 sequence (looked up) 1: T1 sequence (looked up)
T2 sequence (looked up) 2: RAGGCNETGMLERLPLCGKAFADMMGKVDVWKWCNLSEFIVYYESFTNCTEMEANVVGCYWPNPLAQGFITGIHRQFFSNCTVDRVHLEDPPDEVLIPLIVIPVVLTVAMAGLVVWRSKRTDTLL

B1: N^ε1-[(4S)-4-carboxy-4-(19-carboxynonadecanoylamino)butanoyl]-[Glu14,Arg17,Pro21,Pro27,Pro34,Glu35]-h-amylin (peptide)
peptide: K([γGlu-C20 diacid])CNTATCATQRLAEFLRHSSPNFGAIPSSTNVGPETY-NH2
modifications: disulfide 2-7; N-terminus assumed
SMILES: CC[C@H](C)[C@H](NC(=O)[C@H](C)NC(=O)CNC(=O)[C@H](Cc1ccccc1)NC(=O)[C@H](CC(N)=O)NC(=O)[C@@H]1CCCN1C(=O)[C@H](CO)NC(=O)[C@H](CO)NC(=O)[C@H](Cc1c[nH]cn1)NC(=O)[C@H](CCCNC(=N)N)NC(=O)[C@H](CC(C)C)NC(=O)[C@H](Cc1ccccc1)NC(=O)[C@H](CCC(=O)O)NC(=O)[C@H](C)NC(=O)[C@H](CC(C)C)NC(=O)[C@H](CCCNC(=N)N)NC(=O)[C@H](CCC(N)=O)NC(=O)[C@@H](NC(=O)[C@H](C)NC(=O)[C@@H]1CSSC[C@H](NC(=O)[C@@H](N)CCCCNC(=O)CC[C@H](NC(=O)CCCCCCCCCCCCCCCCCCC(=O)O)C(=O)O)C(=O)N[C@@H](CC(N)=O)C(=O)N[C@@H]([C@@H](C)O)C(=O)N[C@@H](C)C(=O)N[C@@H]([C@@H](C)O)C(=O)N1)[C@@H](C)O)C(=O)N1CCC[C@H]1C(=O)N[C@@H](CO)C(=O)N[C@@H](CO)C(=O)N[C@H](C(=O)N[C@@H](CC(N)=O)C(=O)N[C@H](C(=O)NCC(=O)N1CCC[C@H]1C(=O)N[C@@H](CCC(=O)O)C(=O)N[C@H](C(=O)N[C@@H](Cc1ccc(O)cc1)C(N)=O)[C@@H](C)O)C(C)C)[C@@H](C)O
B2: N^ε1-[(4S)-4-carboxy-4-(19-carboxynonadecanoylamino)butanoyl]-[His14,Arg17,Pro21,Pro27,His34]-h-amylin (peptide)
peptide: K([γGlu-C20 diacid])CNTATCATQRLAHFLRHSSPNFGAIPSSTNVGHNTY-NH2
modifications: disulfide 2-7; N-terminus assumed
SMILES: CC[C@H](C)[C@H](NC(=O)[C@H](C)NC(=O)CNC(=O)[C@H](Cc1ccccc1)NC(=O)[C@H](CC(N)=O)NC(=O)[C@@H]1CCCN1C(=O)[C@H](CO)NC(=O)[C@H](CO)NC(=O)[C@H](Cc1c[nH]cn1)NC(=O)[C@H](CCCNC(=N)N)NC(=O)[C@H](CC(C)C)NC(=O)[C@H](Cc1ccccc1)NC(=O)[C@H](Cc1c[nH]cn1)NC(=O)[C@H](C)NC(=O)[C@H](CC(C)C)NC(=O)[C@H](CCCNC(=N)N)NC(=O)[C@H](CCC(N)=O)NC(=O)[C@@H](NC(=O)[C@H](C)NC(=O)[C@@H]1CSSC[C@H](NC(=O)[C@@H](N)CCCCNC(=O)CC[C@H](NC(=O)CCCCCCCCCCCCCCCCCCC(=O)O)C(=O)O)C(=O)N[C@@H](CC(N)=O)C(=O)N[C@@H]([C@@H](C)O)C(=O)N[C@@H](C)C(=O)N[C@@H]([C@@H](C)O)C(=O)N1)[C@@H](C)O)C(=O)N1CCC[C@H]1C(=O)N[C@@H](CO)C(=O)N[C@@H](CO)C(=O)N[C@H](C(=O)N[C@@H](CC(N)=O)C(=O)N[C@H](C(=O)NCC(=O)N[C@@H](Cc1c[nH]cn1)C(=O)N[C@@H](CC(N)=O)C(=O)N[C@H](C(=O)N[C@@H](Cc1ccc(O)cc1)C(N)=O)[C@@H](C)O)C(C)C)[C@@H](C)O
notes: also called compound 81
B3: N^ε1-[(4S)-4-carboxy-4-[[(4S)-4-carboxy-4-(19-carboxynonadecanoylamino)butanoyl]amino]butanoyl]-[Arg17,Pro21,Pro27,His34]-h-amylin (peptide)
peptide: K([γGlu-γGlu-C20 diacid])CNTATCATQRLANFLRHSSPNFGAIPSSTNVGHNTY-NH2
modifications: disulfide 2-7; N-terminus assumed
SMILES: CC[C@H](C)[C@H](NC(=O)[C@H](C)NC(=O)CNC(=O)[C@H](Cc1ccccc1)NC(=O)[C@H](CC(N)=O)NC(=O)[C@@H]1CCCN1C(=O)[C@H](CO)NC(=O)[C@H](CO)NC(=O)[C@H](Cc1c[nH]cn1)NC(=O)[C@H](CCCNC(=N)N)NC(=O)[C@H](CC(C)C)NC(=O)[C@H](Cc1ccccc1)NC(=O)[C@H](CC(N)=O)NC(=O)[C@H](C)NC(=O)[C@H](CC(C)C)NC(=O)[C@H](CCCNC(=N)N)NC(=O)[C@H](CCC(N)=O)NC(=O)[C@@H](NC(=O)[C@H](C)NC(=O)[C@@H]1CSSC[C@H](NC(=O)[C@@H](N)CCCCNC(=O)CC[C@H](NC(=O)CC[C@H](NC(=O)CCCCCCCCCCCCCCCCCCC(=O)O)C(=O)O)C(=O)O)C(=O)N[C@@H](CC(N)=O)C(=O)N[C@@H]([C@@H](C)O)C(=O)N[C@@H](C)C(=O)N[C@@H]([C@@H](C)O)C(=O)N1)[C@@H](C)O)C(=O)N1CCC[C@H]1C(=O)N[C@@H](CO)C(=O)N[C@@H](CO)C(=O)N[C@H](C(=O)N[C@@H](CC(N)=O)C(=O)N[C@H](C(=O)NCC(=O)N[C@@H](Cc1c[nH]cn1)C(=O)N[C@@H](CC(N)=O)C(=O)N[C@H](C(=O)N[C@@H](Cc1ccc(O)cc1)C(N)=O)[C@@H](C)O)C(C)C)[C@@H](C)O
notes: also called compound 86
B4: N^ε1-[(4S)-4-carboxy-4-(19-carboxynonadecanoylamino)butanoyl]-[His14,Arg17,Pro21,Pro27,Pro31,Pro34]-h-amylin (peptide)
peptide: K([γGlu-C20 diacid])CNTATCATQRLAHFLRHSSPNFGAIPSSTPVGPNTY-NH2
modifications: disulfide 2-7; N-terminus assumed
SMILES: CC[C@H](C)[C@H](NC(=O)[C@H](C)NC(=O)CNC(=O)[C@H](Cc1ccccc1)NC(=O)[C@H](CC(N)=O)NC(=O)[C@@H]1CCCN1C(=O)[C@H](CO)NC(=O)[C@H](CO)NC(=O)[C@H](Cc1c[nH]cn1)NC(=O)[C@H](CCCNC(=N)N)NC(=O)[C@H](CC(C)C)NC(=O)[C@H](Cc1ccccc1)NC(=O)[C@H](Cc1c[nH]cn1)NC(=O)[C@H](C)NC(=O)[C@H](CC(C)C)NC(=O)[C@H](CCCNC(=N)N)NC(=O)[C@H](CCC(N)=O)NC(=O)[C@@H](NC(=O)[C@H](C)NC(=O)[C@@H]1CSSC[C@H](NC(=O)[C@@H](N)CCCCNC(=O)CC[C@H](NC(=O)CCCCCCCCCCCCCCCCCCC(=O)O)C(=O)O)C(=O)N[C@@H](CC(N)=O)C(=O)N[C@@H]([C@@H](C)O)C(=O)N[C@@H](C)C(=O)N[C@@H]([C@@H](C)O)C(=O)N1)[C@@H](C)O)C(=O)N1CCC[C@H]1C(=O)N[C@@H](CO)C(=O)N[C@@H](CO)C(=O)N[C@H](C(=O)N1CCC[C@H]1C(=O)N[C@H](C(=O)NCC(=O)N1CCC[C@H]1C(=O)N[C@@H](CC(N)=O)C(=O)N[C@H](C(=O)N[C@@H](Cc1ccc(O)cc1)C(N)=O)[C@@H](C)O)C(C)C)[C@@H](C)O
B5: N^ε1-[(4S)-4-carboxy-4-(19-carboxynonadecanoylamino)butanoyl]-[Glu14,Arg17,Pro21,Pro27,Pro34,His35]-h-amylin (peptide)
peptide: K([γGlu-C20 diacid])CNTATCATQRLAEFLRHSSPNFGAIPSSTNVGPHTY-NH2
modifications: disulfide 2-7
B6: N^ε1-[(4S)-4-carboxy-4-(19-carboxynonadecanoylamino)butanoyl]-[His14,Arg17,Pro21,Pro27,Arg34]-h-amylin (peptide)
peptide: K([γGlu-C20 diacid])CNTATCATQRLAHFLRHSSPNFGAIPSSTNVGRNTY-NH2
modifications: disulfide 2-7; N-terminus assumed
SMILES: CC[C@H](C)[C@H](NC(=O)[C@H](C)NC(=O)CNC(=O)[C@H](Cc1ccccc1)NC(=O)[C@H](CC(N)=O)NC(=O)[C@@H]1CCCN1C(=O)[C@H](CO)NC(=O)[C@H](CO)NC(=O)[C@H](Cc1c[nH]cn1)NC(=O)[C@H](CCCNC(=N)N)NC(=O)[C@H](CC(C)C)NC(=O)[C@H](Cc1ccccc1)NC(=O)[C@H](Cc1c[nH]cn1)NC(=O)[C@H](C)NC(=O)[C@H](CC(C)C)NC(=O)[C@H](CCCNC(=N)N)NC(=O)[C@H](CCC(N)=O)NC(=O)[C@@H](NC(=O)[C@H](C)NC(=O)[C@@H]1CSSC[C@H](NC(=O)[C@@H](N)CCCCNC(=O)CC[C@H](NC(=O)CCCCCCCCCCCCCCCCCCC(=O)O)C(=O)O)C(=O)N[C@@H](CC(N)=O)C(=O)N[C@@H]([C@@H](C)O)C(=O)N[C@@H](C)C(=O)N[C@@H]([C@@H](C)O)C(=O)N1)[C@@H](C)O)C(=O)N1CCC[C@H]1C(=O)N[C@@H](CO)C(=O)N[C@@H](CO)C(=O)N[C@H](C(=O)N[C@@H](CC(N)=O)C(=O)N[C@H](C(=O)NCC(=O)N[C@@H](CCCNC(=N)N)C(=O)N[C@@H](CC(N)=O)C(=O)N[C@H](C(=O)N[C@@H](Cc1ccc(O)cc1)C(N)=O)[C@@H](C)O)C(C)C)[C@@H](C)O
notes: also called compound 85

Molecular target: T1, human calcitonin receptor
Assay: ratio IC50 hCTR / IC50 hAmylin-R (reference: human amylin receptor), SPA competition assays
Outline: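 Competition binding by SPA uses membrane preparations (35 ng/μL final) in pH 7.4 Hepes buffer with 1 mM CaCl2 and 5 mM MgCl₂. Incubation lasts 120 min at 25° C, and IC₅₀ comes from one-site fitting.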

| Binder | Ratio hCT/hAmylin binding |
| --- | --- |
| B1 | 13.3 |
| B2 | 87.2 |
| B3 | 159 |
| B4 | 24.8 |
| B5 | 21.2 |
| B6 | 91.8 |

Molecular target: T1, human calcitonin receptor
Assay: SPA competition with 125I-calcitonin on membranes of BHK cells with human calcitonin receptor (Assay VII)
Outline: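 BHK hCTR membranes 35 ng/μL + SPA beads 0.05 mg/well; buffer 50 mM Hepes pH 7.4, 1 mM CaCl2, 5 mM MgCl₂, 0.1% OA, 0.02% Tween20. 120 min, 25° C., shaking. Scintillation count; IC50 by one-site binding competition.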

| Binder | IC50 [nM] |
| --- | --- |
| B1 | 1.86 |
| B2 | 23.6 |
| B3 | 133 |
| B4 | 2.04 |
| B5 | 3.8 |
| B6 | 80.4 |

Molecular target: T2, human amylin receptor (amylin 3(a) …)
Assay: SPA competition with 125I-rat amylin on membranes of BHK cells with human calcitonin receptor and RAMP-3 (Assay V)
Outline: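 One-site competition analysis of SPA counts yielded IC₅₀ as a measure of affinity. Membranes were at 35 ng/μL final; incubation was 120 min at 25° C, pH 7.4.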

| Binder | IC50 [nM] |
| --- | --- |
| B1 | 0.14 |
| B2 | 0.271 |
| B3 | 0.833 |
| B4 | 0.082 |
| B5 | 0.179 |
| B6 | 0.876 |
